# Data from patent US20130337438A1 (JAPAN HEALTH SCIENCES FOUNDATION, published 2013).
# T1: HPV33 L1/L2-capsid (human papillomavirus type 33, UniProt P06418 1-467; P06416 1-499)
# T1 construct: Capsid of co-expressed L1 and L2 from 293FT cells; The pseudovirus is the same capsid with a reporter plasmid; also called L1/L2-capsid of type 33; HPV33 pseudovirus
# T1 sequence 1: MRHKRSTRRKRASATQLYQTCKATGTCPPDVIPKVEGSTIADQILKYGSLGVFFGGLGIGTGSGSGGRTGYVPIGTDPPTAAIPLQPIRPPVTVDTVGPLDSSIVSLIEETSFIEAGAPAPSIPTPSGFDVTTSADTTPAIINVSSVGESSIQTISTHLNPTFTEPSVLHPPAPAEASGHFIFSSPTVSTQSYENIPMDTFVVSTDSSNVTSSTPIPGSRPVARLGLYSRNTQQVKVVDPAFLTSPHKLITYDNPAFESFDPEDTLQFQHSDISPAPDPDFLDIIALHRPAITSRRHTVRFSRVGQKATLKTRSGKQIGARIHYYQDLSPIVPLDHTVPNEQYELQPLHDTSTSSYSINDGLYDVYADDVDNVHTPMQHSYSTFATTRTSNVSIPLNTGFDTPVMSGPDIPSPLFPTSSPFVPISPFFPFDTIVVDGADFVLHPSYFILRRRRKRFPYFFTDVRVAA
# T1 sequence 2: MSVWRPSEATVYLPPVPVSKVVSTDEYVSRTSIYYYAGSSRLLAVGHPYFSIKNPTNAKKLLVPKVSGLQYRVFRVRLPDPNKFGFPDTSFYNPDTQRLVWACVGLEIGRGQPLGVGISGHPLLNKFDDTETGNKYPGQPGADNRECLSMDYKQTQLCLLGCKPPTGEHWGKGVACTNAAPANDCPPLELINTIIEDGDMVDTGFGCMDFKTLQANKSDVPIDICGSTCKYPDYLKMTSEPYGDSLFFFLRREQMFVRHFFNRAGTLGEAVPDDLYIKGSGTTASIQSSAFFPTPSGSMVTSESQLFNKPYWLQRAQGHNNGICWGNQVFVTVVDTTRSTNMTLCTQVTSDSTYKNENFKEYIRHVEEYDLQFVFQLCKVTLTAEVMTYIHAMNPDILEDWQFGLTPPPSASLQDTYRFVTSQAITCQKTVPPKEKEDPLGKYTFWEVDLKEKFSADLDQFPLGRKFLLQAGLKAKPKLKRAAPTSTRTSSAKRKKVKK
# B1: monoclonal antibody 24B (antibody, V domains shown)
# VH: EVQLQQSGTVLARPGASVKMSCKASVYSFPSNWMHWVKQRPGQGLEWIGAIYPGTGATRYNQKFKDKAKLTAVTSADTAYMELSSLTDEDSAVYYCTGYSLYWGQGTILTVSS
# VL: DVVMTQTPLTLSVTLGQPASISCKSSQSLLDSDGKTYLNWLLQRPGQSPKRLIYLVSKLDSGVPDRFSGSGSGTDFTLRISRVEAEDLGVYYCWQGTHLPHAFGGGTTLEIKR
# notes: Used as mouse ascites or as antibody purified from ascites; also called Mouse-Mouse hybridoma 24B (FERM BP-11305)
# Molecular target: T1, HPV33 L1/L2-capsid
# Assay: ELISA on immobilized L1/L2-capsid, ascites 1:100
binder,measurement,value
B1,binding result,binds
